# In patent publication US20200199204A1 (UNITED STATES OF AMERICA AS REPRESENTED BY THE SECRETARY …, published 2020):
# B1: CAP256-VRC26.09 (antibody, V domains shown)
# VH: EVQLVESGGGVVQPGRSLTLSCAASQFNFANYGMHWVRQAPGKGLEWVASISNDGTKKYHEESVWGRFTISKDNSKSTLFLQMNSLRIEDTALYFCVKDQREDECEEWWSDYYDFGRELPCRKSRGLGLAGIFDMWGHGTMVTVSS
# VL: QSALTQPPSVSAAPGQKVTISCSGNSSNIGNNFVSWYQQLPGTAPKLLIYENNRRPSGIPDRFSGSKSGTSATLAISGLQTGDEADYWCAVWGVRRGAGAVFGAGTKVTVLG
# B2: CAP256-VRC26.07 (antibody, V domains shown)
# VH: EVQLVESGGGVVQPGRSLRLSCVGSQFSFNRYGMHWVRQAPGKGLEWVAGISFDGTDRYHADNVWGRFTISRDNSKNTLYLQMSSLRAEDTALYYCAKDLREDECEEWWSDYYDFGKKLPCRKSRGVAGVFDKWGQGTMVTVSS
# VL: QAVLTQPPSVSAAPGQNVTISCSGSGSNIGNNFVSWYQQRPGTAPKLLIYESNKRPSGIPDRFSGSKSGTSATLAITGLQTGDEAYYYCATWAARLNSARVFGTGTMVTVLG
# Experiments:
# Assay in all cases: cell-based or functional assay
# HIV-1 Env of CAP256.PI = HIV-1 Env of CAP256.PI (HIV-1)
# HIV-1 Env of CAP256.SU = HIV-1 Env of CAP256.SU (HIV-1)
# HIV-1 Env of 96ZM651.02 = HIV-1 Env of 96ZM651.02 (HIV-1)
# HIV-1 Env of CAP210.E8 = HIV-1 Env of CAP210.E8 (HIV-1)
# HIV-1 Env of CAP244.D3 = HIV-1 Env of CAP244.D3 (HIV-1)
# HIV-1 Env of CAP45.G3 = HIV-1 Env of CAP45.G3 (HIV-1)
# HIV-1 Env of DU156.12 = HIV-1 Env of DU156.12 (HIV-1)
# HIV-1 Env of DU172.17 = HIV-1 Env of DU172.17 (HIV-1)
# HIV-1 Env of DU422.01 = HIV-1 Env of DU422.01 (HIV-1)
# HIV-1 Env of ZM109.4 = HIV-1 Env of ZM109.4 (HIV-1)
# HIV-1 Env of ZM135.10a = HIV-1 Env of ZM135.10a (HIV-1)
# HIV-1 Env of ZM197.7 = HIV-1 Env of ZM197.7 (HIV-1)
# HIV-1 Env of ZM214.15 = HIV-1 Env of ZM214.15 (HIV-1)
# HIV-1 Env of ZM233.6 = HIV-1 Env of ZM233.6 (HIV-1)
# HIV-1 Env of ZM249.1 = HIV-1 Env of ZM249.1 (HIV-1)
# HIV-1 Env of ZM53.12 = HIV-1 Env of ZM53.12 (HIV-1)
# HIV-1 Env of 0260.v5.c36 = HIV-1 Env of 0260.v5.c36 (HIV-1)
# HIV-1 Env of BG505.w6m = HIV-1 Env of BG505.w6m (HIV-1)
# HIV-1 Env of KER2008.12 = HIV-1 Env of KER2008.12 (HIV-1)
# HIV-1 Env of KER2018.11 = HIV-1 Env of KER2018.11 (HIV-1)
# HIV-1 Env of MB201 = HIV-1 Env of MB201 (HIV-1)
# HIV-1 Env of MB539.2B7 = HIV-1 Env of MB539.2B7 (HIV-1)
# HIV-1 Env of Q168.a2 = HIV-1 Env of Q168.a2 (HIV-1)
# HIV-1 Env of Q23.17 = HIV-1 Env of Q23.17 (HIV-1)
# HIV-1 Env of Q259.d2.17 = HIV-1 Env of Q259.d2.17 (HIV-1)
# HIV-1 Env of Q461.e2 = HIV-1 Env of Q461.e2 (HIV-1)
# HIV-1 Env of Q769.d22 = HIV-1 Env of Q769.d22 (HIV-1)
# HIV-1 Env of Q842.d12 = HIV-1 Env of Q842.d12 (HIV-1)
# HIV-1 Env of RW020.2 = HIV-1 Env of RW020.2 (HIV-1)
# HIV-1 Env of UG037.8 = HIV-1 Env of UG037.8 (HIV-1)
# HIV-1 Env of 6535.3 = HIV-1 Env of 6535.3 (HIV-1)
# HIV-1 Env of AC10.29 = HIV-1 Env of AC10.29 (HIV-1)
# HIV-1 Env of CAAN.A2 = HIV-1 Env of CAAN.A2 (HIV-1)
# HIV-1 Env of PVO.04 = HIV-1 Env of PVO.04 (HIV-1)
# HIV-1 Env of QH0692.42 = HIV-1 Env of QH0692.42 (HIV-1)
# HIV-1 Env of REJO.67 = HIV-1 Env of REJO.67 (HIV-1)
# HIV-1 Env of RHPA.7 = HIV-1 Env of RHPA.7 (HIV-1)
# HIV-1 Env of SC422.8 = HIV-1 Env of SC422.8 (HIV-1)
# HIV-1 Env of THRO.18 = HIV-1 Env of THRO.18 (HIV-1)
# HIV-1 Env of TRJO.58 = HIV-1 Env of TRJO.58 (HIV-1)
# HIV-1 Env of TRO.11 = HIV-1 Env of TRO.11 (HIV-1)
# HIV-1 Env of WITO.33 = HIV-1 Env of WITO.33 (HIV-1)
# HIV-1 Env of 191821.E6.1 = HIV-1 Env of 191821.E6.1 (HIV-1)
# HIV-1 Env of 3016.V5.c36 = HIV-1 Env of 3016.V5.c36 (HIV-1)
# HIV-1 Env of 6405.v4.c34 = HIV-1 Env of 6405.v4.c34 (HIV-1)
# HIV-1 Env of C1080.c3 = HIV-1 Env of C1080.c3 (HIV-1)
# HIV-1 Env of CM244.ec1 = HIV-1 Env of CM244.ec1 (HIV-1)
binder,measurement,setting,value
B1,neutralization IC50,HIV-1 Env of CAP256.PI,> 50 mg/L
same,neutralization IC50,HIV-1 Env of CAP256.SU,0.002 mg/L
same,neutralization IC50,HIV-1 Env of 96ZM651.02,0.991 mg/L
same,neutralization IC50,HIV-1 Env of CAP210.E8,0.002 mg/L
same,neutralization IC50,HIV-1 Env of CAP244.D3,> 50 mg/L
same,neutralization IC50,HIV-1 Env of CAP45.G3,16 mg/L
same,neutralization IC50,HIV-1 Env of DU156.12,0.016 mg/L
same,neutralization IC50,HIV-1 Env of DU172.17,> 50 mg/L
same,neutralization IC50,HIV-1 Env of DU422.01,0.023 mg/L
same,neutralization IC50,HIV-1 Env of ZM109.4,> 50 mg/L
same,neutralization IC50,HIV-1 Env of ZM135.10a,> 50 mg/L
same,neutralization IC50,HIV-1 Env of ZM197.7,0.011 mg/L
same,neutralization IC50,HIV-1 Env of ZM214.15,0.333 mg/L
same,neutralization IC50,HIV-1 Env of ZM233.6,0.001 mg/L
same,neutralization IC50,HIV-1 Env of ZM249.1,0.01 mg/L
same,neutralization IC50,HIV-1 Env of ZM53.12,0.002 mg/L
same,neutralization IC50,HIV-1 Env of 0260.v5.c36,> 50 mg/L
same,neutralization IC50,HIV-1 Env of BG505.w6m,0.054 mg/L
same,neutralization IC50,HIV-1 Env of KER2008.12,> 50 mg/L
same,neutralization IC50,HIV-1 Env of KER2018.11,0.002 mg/L
same,neutralization IC50,HIV-1 Env of MB201,> 50 mg/L
same,neutralization IC50,HIV-1 Env of MB539.2B7,40.7 mg/L
same,neutralization IC50,HIV-1 Env of Q168.a2,0.181 mg/L
same,neutralization IC50,HIV-1 Env of Q23.17,9.5 mg/L
same,neutralization IC50,HIV-1 Env of Q259.d2.17,0.008 mg/L
same,neutralization IC50,HIV-1 Env of Q461.e2,0.705 mg/L
same,neutralization IC50,HIV-1 Env of Q769.d22,> 50 mg/L
same,neutralization IC50,HIV-1 Env of Q842.d12,10.1 mg/L
same,neutralization IC50,HIV-1 Env of RW020.2,> 50 mg/L
same,neutralization IC50,HIV-1 Env of UG037.8,> 50 mg/L
same,neutralization IC50,HIV-1 Env of 6535.3,> 50 mg/L
same,neutralization IC50,HIV-1 Env of AC10.29,> 50 mg/L
same,neutralization IC50,HIV-1 Env of CAAN.A2,> 50 mg/L
same,neutralization IC50,HIV-1 Env of PVO.04,> 50 mg/L
same,neutralization IC50,HIV-1 Env of QH0692.42,> 50 mg/L
same,neutralization IC50,HIV-1 Env of REJO.67,> 50 mg/L
same,neutralization IC50,HIV-1 Env of RHPA.7,> 50 mg/L
same,neutralization IC50,HIV-1 Env of SC422.8,> 50 mg/L
same,neutralization IC50,HIV-1 Env of THRO.18,> 50 mg/L
same,neutralization IC50,HIV-1 Env of TRJO.58,> 50 mg/L
same,neutralization IC50,HIV-1 Env of TRO.11,> 50 mg/L
same,neutralization IC50,HIV-1 Env of WITO.33,> 50 mg/L
same,neutralization IC50,HIV-1 Env of 191821.E6.1,0.054 mg/L
same,neutralization IC50,HIV-1 Env of 3016.V5.c36,0.004 mg/L
same,neutralization IC50,HIV-1 Env of 6405.v4.c34,> 50 mg/L
same,neutralization IC50,HIV-1 Env of C1080.c3,0.019 mg/L
same,neutralization IC50,HIV-1 Env of CM244.ec1,0.105 mg/L
B2,neutralization IC50,HIV-1 Env of CAP256.PI,> 50 mg/L
same,neutralization IC50,HIV-1 Env of CAP256.SU,0.008 mg/L
same,neutralization IC50,HIV-1 Env of 96ZM651.02,> 50 mg/L
same,neutralization IC50,HIV-1 Env of CAP210.E8,0.021 mg/L
same,neutralization IC50,HIV-1 Env of CAP244.D3,> 50 mg/L
same,neutralization IC50,HIV-1 Env of CAP45.G3,> 50 mg/L
same,neutralization IC50,HIV-1 Env of DU156.12,> 50 mg/L
same,neutralization IC50,HIV-1 Env of DU172.17,> 50 mg/L
same,neutralization IC50,HIV-1 Env of DU422.01,> 50 mg/L
same,neutralization IC50,HIV-1 Env of ZM109.4,> 50 mg/L
same,neutralization IC50,HIV-1 Env of ZM135.10a,> 50 mg/L
same,neutralization IC50,HIV-1 Env of ZM197.7,> 50 mg/L
same,neutralization IC50,HIV-1 Env of ZM214.15,> 50 mg/L
same,neutralization IC50,HIV-1 Env of ZM233.6,> 50 mg/L
same,neutralization IC50,HIV-1 Env of ZM249.1,44.1 mg/L
same,neutralization IC50,HIV-1 Env of ZM53.12,0.014 mg/L
same,neutralization IC50,HIV-1 Env of 0260.v5.c36,> 50 mg/L
same,neutralization IC50,HIV-1 Env of BG505.w6m,> 50 mg/L
same,neutralization IC50,HIV-1 Env of KER2008.12,> 50 mg/L
same,neutralization IC50,HIV-1 Env of KER2018.11,3.1 mg/L
same,neutralization IC50,HIV-1 Env of MB201,> 50 mg/L
same,neutralization IC50,HIV-1 Env of MB539.2B7,> 50 mg/L
same,neutralization IC50,HIV-1 Env of Q168.a2,> 50 mg/L
same,neutralization IC50,HIV-1 Env of Q23.17,> 50 mg/L
same,neutralization IC50,HIV-1 Env of Q259.d2.17,42.5 mg/L
same,neutralization IC50,HIV-1 Env of Q461.e2,> 50 mg/L
same,neutralization IC50,HIV-1 Env of Q769.d22,> 50 mg/L
same,neutralization IC50,HIV-1 Env of Q842.d12,> 50 mg/L
same,neutralization IC50,HIV-1 Env of RW020.2,> 50 mg/L
same,neutralization IC50,HIV-1 Env of UG037.8,> 50 mg/L
same,neutralization IC50,HIV-1 Env of 6535.3,> 50 mg/L
same,neutralization IC50,HIV-1 Env of AC10.29,> 50 mg/L
same,neutralization IC50,HIV-1 Env of CAAN.A2,> 50 mg/L
same,neutralization IC50,HIV-1 Env of PVO.04,> 50 mg/L
same,neutralization IC50,HIV-1 Env of QH0692.42,> 50 mg/L
same,neutralization IC50,HIV-1 Env of REJO.67,> 50 mg/L
same,neutralization IC50,HIV-1 Env of RHPA.7,> 50 mg/L
same,neutralization IC50,HIV-1 Env of SC422.8,> 50 mg/L
same,neutralization IC50,HIV-1 Env of THRO.18,> 50 mg/L
same,neutralization IC50,HIV-1 Env of TRJO.58,> 50 mg/L
same,neutralization IC50,HIV-1 Env of TRO.11,> 50 mg/L
same,neutralization IC50,HIV-1 Env of WITO.33,> 50 mg/L
same,neutralization IC50,HIV-1 Env of 191821.E6.1,> 50 mg/L
same,neutralization IC50,HIV-1 Env of 3016.V5.c36,> 50 mg/L
same,neutralization IC50,HIV-1 Env of 6405.v4.c34,> 50 mg/L
same,neutralization IC50,HIV-1 Env of C1080.c3,> 50 mg/L
same,neutralization IC50,HIV-1 Env of CM244.ec1,40.1 mg/L
